± gives the uncertainty stated by the source.
Experiment: self-splicing fitness, log relative to wild type (ln ratio); higher = more splicing; Tetrahymena group I intron in knt gene, E. coli kanamycin selection, DiMSum; sequences stand for … in CUCUCU…GGAGGGAAAAGUUAUCAGGCAUGCACCUGGUAGCUAGUCUUUAAACCAAUAGAUUGCAUCGGUUUAAAAGGCAAGACCGUCAAAUUGCGGGAAAGGGGUCAACAGCCGUUCAGUACCAAGUCUCAGGGGAAACUUUGAGAUGGCCUUGCAAAGGGUAUGGUAAUAAGCUGACGGACAUGGUCCUAACCACGCAGCCAAGUCCUAAGUCAACAGAUCUUCUGUUGAUAUGGAUGCAGUUCACAGACUAAAUGUCGGUCGGGGAAGAUGUAUUCUUCUCAUAAGAUAUAGUCGGACCUCUCCUUAAUGGGAGCUAGCGGAUGAAGUGAUGCAACACUGGAGCCGCUGGGAACUAAUUUGUAUGCGAAAGUAUAUUGAUUAGUUUUGGAGUACUCGUGGUCG
Method in brief: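 Colonies from six replicate transformations of E. coli BL21(DE3) were pooled and amplicon-sequenced on an Illumina HiSeq 2500. The library placed an intron with all eight P1ex-region nucleotides randomised inside the knt kanamycin-resistance gene on pET-22b(+), and cells grew overnight at 37°C or 30°C on LB agar with or without 25 μg/mL kanamycin (plus 100 μg/mL carbenicillin, 50 μM IPTG, 0.2% rhamnose). Fitness is the DiMSum error-weighted combination of wild-type-normalised replicate fold changes, kanamycin versus none.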

Sequence | self-splicing fitness (ln) (30 °C) | self-splicing fitness (ln) (37 °C)
CAUAAGCAAUAUUACGAACU | -2.47 ± 0.23 | -2.69 ± 0.29
CUGCAGCAAUAUUACGGUAA | -2.7 ± 0.16 | -1.76 ± 0.14
UCCAAGCAAUAUUACGUCAU | -3.09 ± 0.14 | -1.39 ± 0.11
CAGUAGCAAUAUUACGGACC | -2.15 ± 0.36 | –
ACGGAGCAAUAUUACGGCGU | -2.38 ± 0.2 | -1.48 ± 0.19
AACCAGCAAUAUUACGGGAU | -2.59 ± 0.097 | -1.6 ± 0.098
UGAAAGCAAUAUUACGACAC | -2.11 ± 0.34 | -1.18 ± 0.4
ACGCAGCAAUAUUACGGAAG | -3.57 ± 0.24 | -1.75 ± 0.16
ACCCAGCAAUAUUACGUAGU | 0.0959 ± 0.045 | 0.0745 ± 0.058
CCCAAGCAAUAUUACGUAGA | -3.94 ± 0.17 | -3.16 ± 0.18
AAGAAGCAAUAUUACGGCUU | -2.42 ± 0.14 | -3.23 ± 0.24
CACCAGCAAUAUUACGCGAA | -4.18 ± 0.21 | -2.04 ± 0.12
GCCAAGCAAUAUUACGAGGG | -2.8 ± 0.094 | -1.82 ± 0.11
CACAAGCAAUAUUACGCCGU | -2.15 ± 0.23 | -2.36 ± 0.26
CAUUAGCAAUAUUACGAUUG | -1.49 ± 0.077 | -0.759 ± 0.11
UUCUAGCAAUAUUACGAGUG | 0.0611 ± 0.065 | 0.118 ± 0.094
GCGGAGCAAUAUUACGAACC | -1.32 ± 0.35 | –
AUUUAGCAAUAUUACGACGC | -1.8 ± 0.19 | -0.352 ± 0.21
GUGAAGCAAUAUUACGAUAG | -2.11 ± 0.19 | -0.681 ± 0.18
CGUUAGCAAUAUUACGGGGA | – | -2.28 ± 0.3
CGACAGCAAUAUUACGAAGU | -4.32 ± 0.37 | -3.18 ± 0.43
AGACAGCAAUAUUACGGCCA | -1.28 ± 0.11 | -0.142 ± 0.11

Sequence | self-splicing fitness (ln) (30 °C) | self-splicing fitness (ln) (37 °C)
CUCCAGCAAUAUUACGACCA | – | -1.37 ± 0.41
GUGAAGCAAUAUUACGCAGG | -1.88 ± 0.1 | -0.654 ± 0.1
GUCAAGCAAUAUUACGCUUG | -4.27 ± 0.36 | -2.06 ± 0.23
AGGGAGCAAUAUUACGAUCG | -2.68 ± 0.27 | -2.19 ± 0.46
CGUGAGCAAUAUUACGUGAA | – | -1.17 ± 0.22
AUACAGCAAUAUUACGGUUC | -2.89 ± 0.12 | -1.2 ± 0.12
UGGUAGCAAUAUUACGUGCU | -2 ± 0.13 | -1.18 ± 0.16
UAUUAGCAAUAUUACGCUCG | -0.476 ± 0.17 | 0.237 ± 0.2
AGUUAGCAAUAUUACGCUGU | -2.3 ± 0.14 | -2.01 ± 0.21
CCCCAGCAAUAUUACGGAAC | -3.83 ± 0.26 | -3.1 ± 0.22
UCAGAGCAAUAUUACGUCUU | -3.53 ± 0.32 | -2.53 ± 0.36
UAUUAGCAAUAUUACGUGUC | -3.34 ± 0.39 | –
CAAGAGCAAUAUUACGAUUG | -2.26 ± 0.13 | -1.86 ± 0.15
ACAAAGCAAUAUUACGGCUA | -0.14 ± 0.054 | -0.0776 ± 0.062
AGAUAGCAAUAUUACGAGGC | -0.902 ± 0.39 | -0.819 ± 0.21
ACUCAGCAAUAUUACGUACA | -1.74 ± 0.1 | -0.876 ± 0.1
AAGGAGCAAUAUUACGGUAC | -3.2 ± 0.47 | -2.19 ± 0.4
AAACAGCAAUAUUACGCAUG | -2.12 ± 0.077 | -1.58 ± 0.089
ACAAAGCAAUAUUACGAAAA | -2.93 ± 0.25 | -2.42 ± 0.27
CUGAAGCAAUAUUACGCCUA | -3.82 ± 0.24 | -3.63 ± 0.33
CCGUAGCAAUAUUACGUUUC | -3.05 ± 0.16 | -3.47 ± 0.29
UGCUAGCAAUAUUACGGGGC | -3.59 ± 0.29 | -2.69 ± 0.25
